The chains are these.
B1: mRNA-splicing (parent)
chain: AGUUGCUGCUGGGAGCUCCAGCACAGUGAAAUGGACAGAAGGGCAGAGCAA

51 variants from the RNAGym collection of RNA variant scans (doi:10.1101/gr.219683.116) can be followed below.

In this data set the parent is B1. Kind of data set: exon inclusion enrichment index; higher = more inclusion; WT1 exon 5 minigene, HEK293.
As for AGUUCACACAGGGAGCUCCAGCACAGUGGGAUGGACAGAAGGGCAGAGCAA [G5C C6A U7C G8A U10A A29G A30G], the “exon inclusion enrichment index” value was 0.0879. Under AGUUCACACAGGGAGCUCCAGCACAGUGGUAUGGACAGAAGGGCAGAGCAA [G5C C6A U7C G8A U10A A29G A30U] stands 0.0104. Under AGUUCACACAGGGAGCUCCAGCACAGUGGCAUGGACAGAAGGGCAGAGCAA [G5C C6A U7C G8A U10A A29G A30C] stands 0.0319; under AGUUCACACAGGGAGCUCCAGCACAGUGAAAUGGACAGAAGGGCAGCACAA [G5C C6A U7C G8A U10A A47C G48A], 0.0538. Under AGUUCACACAGGGAGCUCCAGCACAGUGAAAUGGACAGAAGGGCAGCCCAA [G5C C6A U7C G8A U10A A47C G48C] stands 0.224; under AGUUCACACAGGGAGCUCCAGCACAGUGAAAUGGACAGAAGGGCAGCUCAA [G5C C6A U7C G8A U10A A47C G48U], 0.0993; under AGUUCACACAGGGAGCUCCAGCACAGUGAAAUGGACAGAUGGGCAGAGCAA [G5C C6A U7C G8A U10A A40U], 0.0713. As for AGUUCACACAGGGAGCUCCAGCACAGUGAAAUGGACAGACGGGCAGAGCAA [G5C C6A U7C G8A U10A A40C], the “exon inclusion enrichment index” value came out at 0.355.

In the case of AGUUCACACAGGGAGCUCCAGCACAGUGAAAUGGACAGAGGGGCAGAGCAA [G5C C6A U7C G8A U10A A40G], the “exon inclusion enrichment index” value turned out to be 0.0695. As for AGUUCACACAGGGAGCUCCAGCACAGUGAAAUGGACAGAAGGGCGGAGCAA [G5C C6A U7C G8A U10A A45G], the “exon inclusion enrichment index” value was determined as 0.276. Under AGUUCACACAGGGAGCUCCAGCACAGUGAAAUGGACAGAAGGGCCGAGCAA [G5C C6A U7C G8A U10A A45C] stands 0.18. Under AGUUCACACAGGGAGCUCCAGCACAGUGAAAUGGACAGAAGGGCUGAGCAA [G5C C6A U7C G8A U10A A45U] stands 0.211; under AGUUCACACAGGGAGCUCCAGCACAGUGAAAUGGACAGAAGGGCUUAGCAA [G5C C6A U7C G8A U10A A45U G46U], 0.0227.

As for AGUUCACACAGGGAGCUCCAGCACAGUGAAAUGGACAGAAGGGCUCAGCAA [G5C C6A U7C G8A U10A A45U G46C], the “exon inclusion enrichment index” value was found to be 0.0541.

Take AGUUCACACAGGGAGCUCCAGCACAGUGAAAUGGACAGAAGGGCUAAGCAA [G5C C6A U7C G8A U10A A45U G46A]: the “exon inclusion enrichment index” value came out at 0.0675. Regarding AGUUCACACAGGGAGCUCCAGCACAGUGUUAUGGACAGAAGGGCAGAGCAA [G5C C6A U7C G8A U10A A29U A30U], the “exon inclusion enrichment index” value stood at 0.0185.

Regarding AGUUCACACAGGGAGCUCCAGCACAGUGUCAUGGACAGAAGGGCAGAGCAA [G5C C6A U7C G8A U10A A29U A30C], the “exon inclusion enrichment index” value was 0.0766. On to AGUUCACACAGGGAGCUCCAGCACAGUGUGAUGGACAGAAGGGCAGAGCAA [G5C C6A U7C G8A U10A A29U A30G], for which the “exon inclusion enrichment index” value is 0.125. As to AGUUCACACAGGGAGCUCCAGCACAGUGAAAUGGCCAGAAGGGCAGAGCAA [G5C C6A U7C G8A U10A A35C], the “exon inclusion enrichment index” value is 0.0232. Under AGUUCACACAGGGAGCUCCAGCACAGUGAAAUGGGCAGAAGGGCAGAGCAA [G5C C6A U7C G8A U10A A35G] stands 0.0247. Regarding AGUUCACACAGGGAGCUCCAGCACAGUGAAAUGGUCAGAAGGGCAGAGCAA [G5C C6A U7C G8A U10A A35U], the “exon inclusion enrichment index” value came out at 0.00802.

For the variant AGUUCACACAGGGAGCUCCAGCACAGUGAAAUGGACAGAAGGGCCCAGCAA [G5C C6A U7C G8A U10A A45C G46C], the “exon inclusion enrichment index” value stood at 0.0869. Turning to AGUUCACACAGGGAGCUCCAGCACAGUGAAAUGGACAGAAGGGCCUAGCAA [G5C C6A U7C G8A U10A A45C G46U], the “exon inclusion enrichment index” value was 0.0352.

As to AGUUCACACAGGGAGCUCCAGCACAGUGAAAUGGACAGAAGGGCCAAGCAA [G5C C6A U7C G8A U10A A45C G46A], the “exon inclusion enrichment index” value stood at 0.0623. AGUUCACACAGGGAGCUCCAGCACAGUGAAAUGGACAGAAGGGCAGGGCAA [G5C C6A U7C G8A U10A A47G]: the “exon inclusion enrichment index” value is 0.0221. On to AGUUCACACAGGGAGCUCCAGCACAGUGAAAUGGACAGAAGGGCAGCGCAA [G5C C6A U7C G8A U10A A47C], for which the “exon inclusion enrichment index” value was 0.232. For AGUUCACACAGGGAGCUCCAGCACAGUGAGAUGGACAGAAGGGCAGAGCAA [G5C C6A U7C G8A U10A A30G], the “exon inclusion enrichment index” value worked out at 0.0971. Under AGUUCACACAGGGAGCUCCAGCACAGUGACAUGGACAGAAGGGCAGAGCAA [G5C C6A U7C G8A U10A A30C] stands 0.0836; under AGUUCACACAGGGAGCUCCAGCACAGUGAUAUGGACAGAAGGGCAGAGCAA [G5C C6A U7C G8A U10A A30U], 0.0402. Regarding AGUUCACACAGGGAGCUCCAGCACAGUGAAAUGGACAGAAGGGCAGGACAA [G5C C6A U7C G8A U10A A47G G48A], the “exon inclusion enrichment index” value was determined as 0.0475. Consider AGUUCACACAGGGAGCUCCAGCACAGUGAAAUGGACUAAAGGGCAGAGCAA [G5C C6A U7C G8A U10A A37U G38A], for which the “exon inclusion enrichment index” value was found to be 0.0332.

Turning to AGUUCACACAGGGAGCUCCAGCACAGUGAAAUGGACUCAAGGGCAGAGCAA [G5C C6A U7C G8A U10A A37U G38C], the “exon inclusion enrichment index” value came out at 0.0672. Under AGUUCACACAGGGAGCUCCAGCACAGUGAAAUGGACUUAAGGGCAGAGCAA [G5C C6A U7C G8A U10A A37U G38U] stands 0.0186. Under AGUUCACACAGGGAGCUCCAGCACAGUGAAUUGGACAGAAGGGCAGAGCAA [G5C C6A U7C G8A U10A A31U] stands 0.094; under AGUUCACACAGGGAGCUCCAGCACAGUGAACUGGACAGAAGGGCAGAGCAA [G5C C6A U7C G8A U10A A31C], 0.155. Under AGUUCACACAGGGAGCUCCAGCACAGUGAAGUGGACAGAAGGGCAGAGCAA [G5C C6A U7C G8A U10A A31G] stands 0.141. With AGUUCACACAGGGAGCUCCAGCACAGUGAAAUGGACAGCAGGGCAGAGCAA [G5C C6A U7C G8A U10A A39C], the “exon inclusion enrichment index” value worked out at 0.0137. For AGUUCACACAGGGAGCUCCAGCACAGUGAAAUGGACAGUAGGGCAGAGCAA [G5C C6A U7C G8A U10A A39U], the “exon inclusion enrichment index” value was 0.00393. Under AGUUCACACAGGGAGCUCCAGCACAGUGAAAUGGACAGGAGGGCAGAGCAA [G5C C6A U7C G8A U10A A39G] stands 0.0326; under AGUUCACACAGGGAGCUCCAGCACAGUGAAAUGGCUAGAAGGGCAGAGCAA [G5C C6A U7C G8A U10A A35C C36U], 0.0111. In the case of AGUUCACACAGGGAGCUCCAGCACAGUGAAAUGGCAAGAAGGGCAGAGCAA [G5C C6A U7C G8A U10A A35C C36A], the “exon inclusion enrichment index” value worked out at 0.0377. Under AGUUCACACAGGGAGCUCCAGCACAGUGAAAUGGCGAGAAGGGCAGAGCAA [G5C C6A U7C G8A U10A A35C C36G] stands 0.107; under AGUUCACACAGGGAGCUCCAGCACAGUGAAAUGGACCCAAGGGCAGAGCAA [G5C C6A U7C G8A U10A A37C G38C], 0.176; under AGUUCACACAGGGAGCUCCAGCACAGUGAAAUGGACCAAAGGGCAGAGCAA [G5C C6A U7C G8A U10A A37C G38A], 0.149. Under AGUUCACACAGGGAGCUCCAGCACAGUGAAAUGGACCUAAGGGCAGAGCAA [G5C C6A U7C G8A U10A A37C G38U] stands 0.0457; under AGUUCACACAGGGAGCUCCAGCACAGUGAGUUGGACAGAAGGGCAGAGCAA [G5C C6A U7C G8A U10A A30G A31U], 0.018; under AGUUCACACAGGGAGCUCCAGCACAGUGAGCUGGACAGAAGGGCAGAGCAA [G5C C6A U7C G8A U10A A30G A31C], 0.00678. On to AGUUCACACAGGGAGCUCCAGCACAGUGAGGUGGACAGAAGGGCAGAGCAA [G5C C6A U7C G8A U10A A30G A31G], for which the “exon inclusion enrichment index” value was 0.0207. Under AGUUCACACAGGGAGCUCCAGCACAGUGAAAUGGACAGAAGGGCGCAGCAA [G5C C6A U7C G8A U10A A45G G46C] stands 0.26; under AGUUCACACAGGGAGCUCCAGCACAGUGAAAUGGACAGAAGGGCGAAGCAA [G5C C6A U7C G8A U10A A45G G46A], 0.559. Take AGUUCACACAGGGAGCUCCAGCACAGUGAAAUGGACAGAAGGGCGUAGCAA [G5C C6A U7C G8A U10A A45G G46U]: the “exon inclusion enrichment index” value was determined as 0.0847.
